No end group written: not given here.
Legend:
[1] = test system: CD4+ T cells; assay: NK cytotoxicity 51Cr-release assay, treated CD4+ T cells as targets of activated autologous purified NK cells; assay type: cell-based, human
Description: NK lines were generated from PBMC, and then purified using the StemSep cell separation system and the NK cell enrichment antibody cocktail (StemCell technologies). NK purified cells were cultured in MyeloCult H5100 medium (StemCell technologies) supplemented with 100 units rhlL-2 (Boheringer). The purity of these preparations was evaluated by flow cytometry after staining with anti-CD3 (BD), anti-CD56 (BD), anti-NKp44, and anti-NKp46 mAbs.
The cytololytic activity was assayed in 4-h ^51Cr-release assay as previously described. Briefly, the target cells were labeled for 2-h at 37° C. with 100 μCi per 10^6 cells Na^51Cr (Amersham), and washed twice with culture medium. The target cells were then distributed in round-bottomed 96-well microtiter plates (4×10^3 cells per well), and the effector cells were added at several E/T ratio. The plates were incubated 4-h at 37° C. The supernatant were then collected and ^51Cr-release was measured in a gamma counted. In experiments in which Abs were included, these were added to final concentration of 20 μg/ml. The relative specific ^51Cr-release was calculated as previously described. Values for spontaneous ^51Cr-release, which are deducted in the calculation, were between 10 and 20% of the total incorporated radioactivity. The results are presented after subtraction of the nonspecific lysis obtained with control targets. […]

[2] = test system: NKp44L expression on purified CD4+ T cells; assay type: cell-based, human; conditions: preliminary experiment with the 6-mers peptide
[3] = biological target: T1, NKp44L (Homo sapiens, UniProt Q8IZD2); assay: Staining of U2 cells with #7.1 mAb, flow cytometry, and competition with NCR-Ig fusion proteins; assay type: binding; conditions: HIV-1-infected U2 cells previously stained with fusion protein (FIG. 8C)
T1 construct: endogenous in cells; host or cells: U2 cells, uninfected or chronically infected with HIV-1 Sf2
T1 sequence (Q8IZD2 1-1168 isoform Q8IZD2-8 K496E/T516A): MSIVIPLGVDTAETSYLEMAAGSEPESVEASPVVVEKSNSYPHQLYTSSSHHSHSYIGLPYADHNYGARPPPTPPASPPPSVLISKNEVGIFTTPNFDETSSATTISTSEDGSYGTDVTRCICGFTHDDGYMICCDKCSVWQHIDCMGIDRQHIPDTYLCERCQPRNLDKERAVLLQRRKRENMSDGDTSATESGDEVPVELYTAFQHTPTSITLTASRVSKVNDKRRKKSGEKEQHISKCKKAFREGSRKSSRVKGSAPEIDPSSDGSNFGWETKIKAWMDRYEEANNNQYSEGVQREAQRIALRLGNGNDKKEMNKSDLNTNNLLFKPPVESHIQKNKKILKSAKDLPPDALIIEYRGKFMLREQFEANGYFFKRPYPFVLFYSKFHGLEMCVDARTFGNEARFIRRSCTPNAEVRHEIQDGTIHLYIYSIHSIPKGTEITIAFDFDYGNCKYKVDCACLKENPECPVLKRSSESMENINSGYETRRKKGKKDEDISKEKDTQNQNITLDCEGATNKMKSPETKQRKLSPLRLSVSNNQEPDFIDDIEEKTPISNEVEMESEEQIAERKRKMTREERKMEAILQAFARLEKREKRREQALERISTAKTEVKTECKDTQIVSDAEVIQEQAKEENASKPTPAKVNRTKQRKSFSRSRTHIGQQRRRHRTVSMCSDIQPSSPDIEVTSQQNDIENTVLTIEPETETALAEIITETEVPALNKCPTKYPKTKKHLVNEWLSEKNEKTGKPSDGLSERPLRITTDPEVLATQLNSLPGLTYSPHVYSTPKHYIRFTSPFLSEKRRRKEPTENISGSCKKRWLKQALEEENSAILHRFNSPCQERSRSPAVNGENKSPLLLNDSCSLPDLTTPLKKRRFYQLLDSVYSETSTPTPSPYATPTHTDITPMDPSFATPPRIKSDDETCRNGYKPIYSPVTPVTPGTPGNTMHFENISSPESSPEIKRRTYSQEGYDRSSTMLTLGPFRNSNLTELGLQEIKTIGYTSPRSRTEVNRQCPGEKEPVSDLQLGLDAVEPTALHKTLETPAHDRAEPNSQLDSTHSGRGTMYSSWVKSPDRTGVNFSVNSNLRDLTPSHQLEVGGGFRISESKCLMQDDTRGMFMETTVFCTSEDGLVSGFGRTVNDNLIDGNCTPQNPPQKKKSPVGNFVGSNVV
Description: 8B) Cell surface expression of NKp44L detected with #7.1 mAb. Uninfected (UI) and HIV-1-infected (Sf2) U2 cells were incubated with 1 μg/ml of #7.1 mAb (black line) or with the IgM isotype control (dotted line) and analyzed by flow cytometry.
8C) #7.1 mAb inhibits NKp44-Ig binding. HIV-1-infected U2 cells that had previously been stained with either […] of NKp44-Ig fusion protein (lower panel; black line) or control NKp46-Ig fusion protein (upper panel; black line) were incubated with #7.1 mAb (gray line) or IgM isotype control (dotted line) for 1!h at 4° C. and washed twice in 1% PBS-BSA. The cells were then analyzed by flow cytometry. Percentage of cells expressing NKp44L, after NCR-Ig incubation, is noted.
Anti-NKp44 (44/8; IgG1) and anti-NKp44L mAb (#7.1; IgM) were obtained from 5-weekold BalB/c mice immunized with the ClonaCell-HY hybridoma cloning kit, according to the manufacturer's instructions (StemCell Technologies Inc.). The anti-mouse-peroxidase hybridoma screening reagent (Roche) and ELISA were used to select antibodies. Anti-NKp44 (44/8) mAb was prepared by immunizing the mice with NKp44-Ig protein, after specific deletion of the IgG1 human Fc fragment. […] All hybridomas were analyzed with 51Cr cytotoxic assays with untreated or acid-treated 721.221 cells as targets, and the specificity of the anti-NKp44 hybridoma was analyzed by ELISA with different fusion proteins. […]

PWASNASWSNKSLDDIW [gp41-C146]
NK cytotoxic activity ([1]; single peptides of pool C 5 μg/ml, two days, E/T ratio 40/1 (FIG. 4A)): strongly increased

SWSNKS [NH2-SWSNKS-COOH, SWSNKS]
cell surface expression of NKp44L [2]: any increased | NK cytotoxic activity ([1]; preliminary experiment with the 6-mers peptide): any increased

B1: NKp44-Ig fusion protein: NKp44-Ig NCR-Ig fusion protein (protein)
chain: QSKAQVLQSVAGQTLTVRCQYPPTGSLYEKKGWCKEASALVCIRLVTSSKPRTMAWTSRFTIWDDPDAGFFTVTMTDLREEDSGHYWCRIYRPSDNSVSKSVRFYLVVSPASASTQTPWTPRDLVSSQTQTQSCVPPTAGARQAPESPSTIPVPSQPQNSTLRPGPAAPIA
modifications: left off: a dimerising Fc or GST
effect of NCR-Ig fusion protein on #7.1 mAb staining [3]: Inhibition

From patent US20170128564A1, “P[…] FROM gp41, A VACCINE COMPOSITION COMPRISING SAID POLYPEPTIDE, AND USES FOR TREATING AN INFECTION BY AN HIV VIRUS IN AN INDIVIDUAL” (INSTITUT NATIONAL DE LA SANTE ET DE LA RECHERCHE MEDICALE …, priority 2003, published 2017)
